Test results as given in patent publication US20050142135A1 (UNIVERSITY OF KENTUCKY RESEARCH FOUNDATION, published 2005).

Legend:
[1] = target: T1, human FSH (human, UniProt P01215 25-116; P01225 19-129); test: 125I-FSH competition binding on HEK293 cells, Scatchard
T1 construct: heterodimer, purchased from the National Hormone and Pituitary Program; also called follicle stimulating hormone
Method: The Kd values were determined by Scatchard plots. Truncated exodomain was solubilized in Nonidet P-40 and assayed for hormone binding as described previously. For intracellular cAMP assay, cells were washed twice with Dulbecco's modified Eagle's media and incubated in the media containing isobutylmethylxanthine (0.1 mg/ml) for 15 minutes. […] After removing the media, the cells were rinsed once with fresh media without isobutylmethylxanthine, lysed in 70% ethanol, freeze-thawed in liquid nitrogen, and scraped. After pelleting cell debris at 16,000×g for 10 minutes at 4° C., the supernatant was collected, dried under vacuum and resuspended in 10 μl of the cAMP assay buffer, which was provided by the manufacturer. cAMP concentrations were determined with an ¹²⁵I-cAMP assay kit (Amersham) following the manufacturer's instruction and validated for use in our laboratory. Exoloop 3 of FSHR was modeled based on the crystal structure of rhodopsin as a template.

[2] = target: T2, human LH receptor, wild type (human, UniProt P22888 27-699); test: competition of 125I-hCG binding to cells expressing LHR
T2 construct: whole, on cells; stably expressed in HEK 293 cells; This holds for all LHR mutants and LHR peptides below; also called LH/CG receptor
T2 sequence (P22888 27-699): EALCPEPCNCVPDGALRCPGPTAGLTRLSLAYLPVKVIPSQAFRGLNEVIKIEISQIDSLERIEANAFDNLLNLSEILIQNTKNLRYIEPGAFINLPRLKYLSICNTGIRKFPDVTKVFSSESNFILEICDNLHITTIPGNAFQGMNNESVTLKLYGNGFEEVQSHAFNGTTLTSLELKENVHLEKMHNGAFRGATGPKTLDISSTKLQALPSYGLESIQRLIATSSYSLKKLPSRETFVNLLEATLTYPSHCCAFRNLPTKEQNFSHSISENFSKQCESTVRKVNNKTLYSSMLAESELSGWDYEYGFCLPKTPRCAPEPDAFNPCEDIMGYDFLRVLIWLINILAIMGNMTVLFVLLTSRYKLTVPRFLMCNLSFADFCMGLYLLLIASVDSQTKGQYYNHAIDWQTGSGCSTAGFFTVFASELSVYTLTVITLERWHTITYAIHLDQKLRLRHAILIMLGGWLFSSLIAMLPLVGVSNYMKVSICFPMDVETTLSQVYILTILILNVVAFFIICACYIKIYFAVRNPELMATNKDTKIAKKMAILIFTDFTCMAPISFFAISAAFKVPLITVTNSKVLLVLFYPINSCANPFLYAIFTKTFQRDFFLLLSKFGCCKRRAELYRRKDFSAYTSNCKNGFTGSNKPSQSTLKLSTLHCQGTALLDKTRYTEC
Method: The Kd values were determined by Scatchard plots. For intracellular cAMP assay, cells were washed twice with Dulbecco's modified Eagle's media and incubated in the media containing isobutylmethylxanthine (0.1 mg/ml) for 15 minutes. Increasing concentrations of hormone were then added and the incubation was continued for 45 minutes at 37° C. After removing the media, the cells were rinsed once with fresh media without isobutylmethylxanthine, lysed in 70% ethanol, freeze-thawed in liquid nitrogen, and scraped.

| Kd [1] [nM] | potency relative to LHR^exo3 in inhibiting ^125I-hCG binding to LHR [2] [fold] | Binder |
| --- | --- | --- |
| 50 | – | FSHR^K590F (receptor) CHHRICHCSNRVFLCQESKVTEIPSDLPRNAIELRFVLTKLRVIQKGAFSGFGDLEKIEISQNDVLEVIEADVFSNLPKLHEIRIEKANNLLYINPEAFQNLPNLQYLLISNTGIKHLPDVHKIHSLQKVLLDIQDNINIHTIERNSFVGLSFESVILWLNKNGIQEIHNCAFNGTQLDELNLSDNNNLEELPNDVFHGASGPVILDISRTRIHSLPSYGLENLKKLRARSTYNLKKLPTLEKLVALMEASLTYPSHCCAFANWRRQISELHPICNKSILRQEVDYMTQARGQRSSLAEDNESSYSRGFDMTYTEFDYDLCNEVVDVTCSPKPDAFNPCEDIMGYNILRVLIWFISILAITGNIIVLVILTTSQYKLTVPRFLMCNLAFADLCIGIYLLLIASVDIHTKSQYHNYAIDWQTGAGCDAAGFFTVFASELSVYTLTAITLERWHTITHAMQLDCKVQLRHAASVMVMGWIFAFAAALFPIFGISSYMKVSICLPMDIDSPLSQLYVMSLLVLNVLAFVVICGCYIHIYLTVRNPNIVSSSSDTRIAKRMAMLIFTDFLCMAPISFFAISASLKVPLITVSKAFILLVLFHPINSCANPFLYAIFTKNFRRDFFILLSKCGCYEMQAQIYRTETSSTVHNTHPRNGHCSSAPRVTSGSTYILVPLSHLAQN |
| 7.2 | – | FSHR^K590L (receptor) CHHRICHCSNRVFLCQESKVTEIPSDLPRNAIELRFVLTKLRVIQKGAFSGFGDLEKIEISQNDVLEVIEADVFSNLPKLHEIRIEKANNLLYINPEAFQNLPNLQYLLISNTGIKHLPDVHKIHSLQKVLLDIQDNINIHTIERNSFVGLSFESVILWLNKNGIQEIHNCAFNGTQLDELNLSDNNNLEELPNDVFHGASGPVILDISRTRIHSLPSYGLENLKKLRARSTYNLKKLPTLEKLVALMEASLTYPSHCCAFANWRRQISELHPICNKSILRQEVDYMTQARGQRSSLAEDNESSYSRGFDMTYTEFDYDLCNEVVDVTCSPKPDAFNPCEDIMGYNILRVLIWFISILAITGNIIVLVILTTSQYKLTVPRFLMCNLAFADLCIGIYLLLIASVDIHTKSQYHNYAIDWQTGAGCDAAGFFTVFASELSVYTLTAITLERWHTITHAMQLDCKVQLRHAASVMVMGWIFAFAAALFPIFGISSYMKVSICLPMDIDSPLSQLYVMSLLVLNVLAFVVICGCYIHIYLTVRNPNIVSSSSDTRIAKRMAMLIFTDFLCMAPISFFAISASLKVPLITVSKALILLVLFHPINSCANPFLYAIFTKNFRRDFFILLSKCGCYEMQAQIYRTETSSTVHNTHPRNGHCSSAPRVTSGSTYILVPLSHLAQN |
| – | > 10000 | hCG (ligand, purchased from the National Hormone and Pituitary Program; also called human chorionic gonadotropin) chain 1: not shown chain 2: SKEPLRPRCRPINATLAVEKEGCPVCITVNTTICAGYCPTMTRVLQGVLPALPQVVCNYRDVRFESIRLPGCPRGVNPVVSYAVALSCQCALCRRSTTDCGGPKDHPLTCDDPRFQDSSSSKAPPPSLPSPSRLPGPSDTPILPQ |
